Results published in paper PMC10760953, “Somatic estrogen receptor α mutations that induce dimerization promote receptor activity and breast cancer proliferation” (The Journal of Clinical Investigation, 2024).
Positions count from the first letter of the chain named. Names and notes keep the numbering of the source. Each block holds one molecule with its values, some of them ahead of it.

Key:
[1] = biological target: S463P ERα ligand-binding domain (LBD); assay: FRET or BRET; time-resolved FRET of dimer exchange: 2 nM ER-LBD labelled at C417 (biotin, streptavidin-terbium) mixed with 10 nM ER-LBD labelled at C530 (fluorescein); apo or exposed to 1 μM E2 for 30 minutes before mixing; signal followed with time
[2] = biological target: T1, S463P ERα ligand-binding domain (LBD); assay: tr-FRET dimer exchange; conditions: chain shown with the change
T1 chain: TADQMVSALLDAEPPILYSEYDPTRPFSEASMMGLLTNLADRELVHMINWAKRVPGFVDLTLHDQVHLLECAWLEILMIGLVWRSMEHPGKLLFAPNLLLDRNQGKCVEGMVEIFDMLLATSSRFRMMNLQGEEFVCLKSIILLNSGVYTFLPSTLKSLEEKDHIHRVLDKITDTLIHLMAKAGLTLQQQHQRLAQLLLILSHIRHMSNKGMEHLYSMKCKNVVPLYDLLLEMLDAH

[3] = biological target: the molecule itself; assay: cell-based or functional assay

fold slower dissociation of dimers into monomers against WT ER, absence of E2 [1]: 7.6 times
Molecule: S463P ERα ligand-binding domain (LBD) (domain or fragment)

other: t1/2 of dimer exchange ([2]; apo (no E2), parent: 7): 0.883 h | other: t1/2 of dimer exchange ([2]; protein exposed to 1 μM E2 for 30 minutes before dimer exchange, parent: 101): 3.17 h
B1: WT ERα ligand-binding domain (LBD) S463P (protein)
chain: T1 chain

B2: HA-tagged ERα S463P (receptor, UniProt P03372 1-595, looked up)
chain: MTMTLHTKASGMALLHQIQGNELEPLNRPQLKIPLERPLGEVYLDSSKPAVYNYPEGAAYEFNAAAAANAQVYGQTGLPYGPGSEAAAFGSNGLGGFPPLNSVSPSPLMLLHPPPQLSPFLQPHGQQVPYYLENEPSGYTVREAGPPAFYRPNSDNRRQGGRERLASTNDKGSMAMESAKETRYCAVCNDYASGYHYGVWSCEGCKAFFKRSIQGHNDYMCPATNQCTIDKNRRKSCQACRLRKCYEVGMMKGGIRKDRRGGRMLKHKRQRDDGEGRGEVGSAGDMRAANLWPSPLMIKRSKKNSLALSLTADQMVSALLDAEPPILYSEYDPTRPFSEASMMGLLTNLADRELVHMINWAKRVPGFVDLTLHDQVHLLECAWLEILMIGLVWRSMEHPGKLLFAPNLLLDRNQGKCVEGMVEIFDMLLATSSRFRMMNLQGEEFVCLKSIILLNSGVYTFLPSTLKSLEEKDHIHRVLDKITDTLIHLMAKAGLTLQQQHQRLAQLLLILSHIRHMSNKGMEHLYSMKCKNVVPLYDLLLEMLDAHRLHAPTSRGGASVEETDQSHLATAGSTSSHSLQKYYITGEAEGFPATV
estrogen-independent expression of GREB1 (RT-qPCR, fold change relative to WT), SKBR3 cells [3]: 2.9 fold | estrogen-independent expression of PGR (RT-qPCR, fold change relative to WT), SKBR3 cells [3]: 7.1 fold

B3: HA-ERα A430K/S463P double mutant (receptor, UniProt P03372 1-595, looked up)
chain: B2 chain with A430K
estrogen-independent expression of GREB1 (RT-qPCR, fold change relative to WT), SKBR3 cells [3]: 0.4 fold | estrogen-independent expression of PGR (RT-qPCR, fold change relative to WT), SKBR3 cells [3]: 0.2 fold
